± gives the standard error.
B1: library; numbered along this chain (parent)
chain: MATDAALRRLLRLHRTEIAVAVDSAFPLLHALADHDVVPEDKFQETLHLKEKEGCPQAFHALLSWLLTQDSTAILDFWRVLFKDYNLERYGRLQPILDSFPKDVDLSQPRKGRKPPAVPKALVPPPRLPTKRKASEEARAAAPAALTPRGTASPGSQLKAKPPKKPESSAEQQRLPLGNGIQTMSASVQRAVAMSSGDVPGARGAVEGILIQQVFESGGSKKCIQVGGEFYTPSKFEDSGSGKNKARSSSGPKPLVRAKGAQGAAPGGGEARLGQQGSVPAPLALPSDPQLHQKNEDECAVCRDGGELICCDGCPRAFHLACLSPPLREIPSGTWRCSSCLQATVQEVQPRAEEPRPQEPPVETPLPPGLRSAGEEVRGPPGEPLAGMDTTLVYKHLPAPPSAAPLPGLDSSALHPLLCVGPEGQQNLAPGARCGVCGDGTDVLRCTHCAAAFHWRCHFPAGTSRPGTGLRCRSCSGDVTPAPVEGVLAPSPARLAPGPAKDDTASHEPALHRDDLESLLSEHTFDGILQWAIQSMARPAAPFPS

Variants of: B1
Assay: AIRE transcriptional activation functional score (insulin promoter-GFP; nonsense median 0, synonymous median 1) (normalised score); higher = higher AIRE activity (more reporter activation)
Details: with insulin promoter-GFP reporter in HEK293
Method in brief: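 Integration of codon-optimized AIRE NNN-codon libraries (three regions) by Bxb1 recombinase was done in Flp-In T-REx HEK293 landing-pad cells containing an insulin core promoter-GFP reporter. Tile-sequencing covered the top 10% GFP cells and the unselected integrants, drawn from mCherry+, BFP− cells sorted at day 7 and grown 7 days. Functional score means the enrichment of a variant in select versus non-select, minus that of wild type. Variants with at least 10 counts per million in non-select were rescaled to nonsense median 0 and synonymous median 1, and the biological replicates were averaged.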

Variant	AIRE transcriptional activation functional score
L158T	0.209 ± 0.54
L158G	1.33 ± 0.7
G486Y	0.737 ± 0.24
G486F	1.46 ± 0.11
E229T	-0.101 ± 0.21
P325V	0.965 ± 0.077
P325I	1.07 ± 0.24
A451W	0.516 ± 0.2
C446A	0.113 ± 0.089
V37W	-0.538 ± 0.062
K161I	1.27 ± 0.34
G374W	1.65 ± 0.042
V104L	0.894 ± 0.53
L511W	1.02 ± 0.11
A5C	1.17 ± 0.35
F453A	0.274 ± 0.29
F453Y	0.32 ± 0.23
A432S	0.578 ± 0.26
E359T	0.92 ± 0.23
E359V	1.08 ± 0.24
P109A	0.959 ± 0.96
R257W	0.743 ± 0.19
R257E	1.12 ± 0.33
R257G	0.771 ± 0.33

Variant	AIRE transcriptional activation functional score
S249R	-0.21 ± 0.29
A461W	1.01 ± 0.044
P481D	1.21 ± 0.15
S169P	1.73 ± 0.82
V443L	0.596 ± 0.25
V443K	0.0676 ± 0.097
F26S	0.0967 ± 0.64
F26A	-0.171 ± 0.064
G421E	1.65 ± 0.72
D410V	0.998 ± 0.28
G180T	0.839 ± 0.76
K294Y	0.634 ± 0.16
C437F	0.199 ± 0.17
C437Q	0.296 ± 0.039
A429Y	0.892 ± 0.44
G228K	0.799 ± 0.39
L273P	1.11 ± 0.34
L273I	1.07 ± 0.28
H523W	-0.242 ± 0.14
M194E	0.601 ± 0.086
K120L	1.13 ± 0.29
P289M	1.35 ± 0.076
D502M	0.261 ± 0.031
D502R	0.415 ± 0.28

Variant	AIRE transcriptional activation functional score
P384R	1.19 ± 0.27
P384N	0.179 ± 0.064
G268H	0.564 ± 0.047
H454W	0.31 ± 0.15
D515I	0.101 ± 0.18
D515E	1.18 ± 0.15
E296V	0.556 ± 0.39
E296W	1.44 ± 0.05
V123A	0.886 ± 0.47
V123R	0.872 ± 0.33
V123Q	1.31 ± 0.14
P27D	-0.285 ± 0.26
R328I	1.17 ± 0.46
E53F	0.611 ± 0.43
D514P	-0.178 ± 0.11
C314W	0.709 ± 0.011
V487T	1.5 ± 0.077
V487S	0.901 ± 0.14
T441K	1.31 ± 0.051
L67Y	0.237 ± 0.24
S195T	1.31 ± 0.091
E45A	-0.429 ± 0.75
I209W	0.784 ± 0.11
V256W	1.37 ± 0.027

Variant	AIRE transcriptional activation functional score
G435M	0.379 ± 0.042
K164Y	0.624 ± 0.74
P116F	1.18 ± 0.075
P116E	0.895 ± 0.69
L255F	1.43 ± 0.15
D34E	-2.11 ± 1.8
V188R	0.52 ± 0.24
A21R	0.00134 ± 0.6
R465I	0.773 ± 0.47
R465W	1.18 ± 0.033
E517G	0.693 ± 0.054
E517K	-0.0484 ± 0.1
P129A	0.717 ± 0.53
P129G	0.951 ± 0.62
A450Q	1.13 ± 0.17
D103Y	0.675 ± 0.25
S491D	0.749 ± 0.32
Q342Y	1.06 ± 0.13
L210V	0.768 ± 0.24
L210Y	0.854 ± 1.2
K243Q	0.804 ± 0.042
K243V	0.856 ± 0.35
A386H	1.44 ± 0.055
G54L	-0.0223 ± 0.78

Variant	AIRE transcriptional activation functional score
G54V	0.385 ± 0.17
S506A	1.36 ± 0.094
S506V	0.824 ± 0.37
P233Q	0.416 ± 0.16
P233C	1.17 ± 0.091
L10C	-0.25 ± 0.31
P166S	0.939 ± 0.27
P166K	-0.231 ± 0.21
I330D	0.391 ± 0.074
I330P	1.33 ± 0.23
S278D	0.859 ± 0.21
K221S	0.464 ± 0.26
A452G	0.775 ± 0.21
S241L	1.17 ± 0.26
C419W	1.21 ± 0.085
V420C	1.11 ± 0.18
T130L	1.13 ± 0.48
C223D	0.503 ± 0.14
V348Y	0.929 ± 0.047
V348C	0.781 ± 0.12
P56L	-0.0629 ± 0.36
L323T	1.35 ± 0.22
L323V	1.21 ± 0.17
K114H	0.207 ± 0.11

Variant	AIRE transcriptional activation functional score
H396R	1.03 ± 0.087
G382P	0.74 ± 0.23
G462R	1.01 ± 0.11
G208A	0.173 ± 0.2
L366P	1.13 ± 0.35
E237R	0.603 ± 0.38
A61D	0.176 ± 0.057
A61F	0.26 ± 0.071
D98F	0.239 ± 0.16
E270I	0.55 ± 0.37
E270H	1.56 ± 0.082
P162S	0.476 ± 0.69
P162G	1.1 ± 0.26
A134P	-0.0505 ± 0.32
G469V	1.14 ± 0.17
Q212W	-0.0246 ± 0.17
S535N	0.164 ± 0.079
P544A	1.28 ± 0.25
S474K	0.466 ± 0.19
V279Y	1.26 ± 0.048
Q69E	0.0374 ± 0.17
D36V	-0.422 ± 0.26
I211Y	1.04 ± 0.15
A500L	0.907 ± 0.16

Variant	AIRE transcriptional activation functional score
A500H	1.22 ± 0.054
T390I	0.876 ± 0.28
T390E	-0.73 ± 0.36
G498M	1.24 ± 0.071
S248P	1.33 ± 0.28
S234F	1.31 ± 0.12
L11R	0.101 ± 0.38
L519T	0.239 ± 0.035
I74E	-0.548 ± 0.08
T364N	0.588 ± 0.082
A317G	0.974 ± 0.3
A403D	0.541 ± 0.099
G440Q	1.15 ± 0.066
F230I	0.507 ± 0.29
F230P	0.293 ± 0.47
L177C	0.72 ± 0.4
G150A	-0.308 ± 0.47
G333A	0.871 ± 0.34
I309E	1.43 ± 0.15
G242S	0.694 ± 0.36
P126C	0.317 ± 0.087
P101S	-0.303 ± 0.31
E522V	0.236 ± 0.14

Reference: the supplement of paper PMC12667976
